Measured values published in the supplement of paper PMC9170038.

Test system: K4 kissing-loop RNA reporter
Test: apparent KD of K4 kissing-loop reporter; higher = weaker reporter binding
Conditions: Eterna round: R107
Method: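 RNA-MaP round R107: designed RNA switches with theophylline, tryptophan, arginine or FMN aptamers are transcribed on-chip within common flanks. They are titrated with a labelled K4 kissing-loop RNA reporter in RNA-MaP buffer (100 mM Tris pH 7.5, 80 mM KCl, 4 mM MgCl2), without ligand or with the indicated ligand. Median apparent KD per design.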

[1] = input ligand: theophylline 20 uM
[2] = input ligand: tryptophan 2.4 mM
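Further: bound reporter read as fluorescence of individual clusters on recovered sequencing chips by microscopy, with normalized cluster intensities fitted with a binding model.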

| Sequence | apparent KD of K4 kissing-loop reporter (input ligand: FMN 200 uM) | apparent KD of K4 kissing-loop reporter (input ligand: arginine 13.2 mM) | apparent KD of K4 kissing-loop reporter (input ligand: none) | apparent KD of K4 kissing-loop reporter [1] | apparent KD of K4 kissing-loop reporter [2] |
| --- | --- | --- | --- | --- | --- |
| UGAUAGGACAGAAGGAGCGGUAGUGAUGUUGCCAAAAGGAUAAGGUGUCAAAAGACACCCUACCAGGUAGGUCGCUGUCCUAUCU | 175 nM | 216 nM | 154 nM | 179 nM | 152 nM |
| UGAUAGGAGUGAAGGAGCGGGAGUGAUGUUCCCAAAAUGGAAGCCUGUAAAAUACAGGCCUCCCAGGUAGGUCGCACUCCUAUCU [KL-XARG-B17] | 98.3 nM | 112 nM | 101 nM | 117 nM | 94.7 nM |
| UGAUUUAACUGAAGGAGCGGCAAUUGAUAAGUAAAUAUAGUGAUGUUAUAUAAGAUAGAGAGCCAGGUAGGUCGCAGAGGUAUUA [ExArgB.M] | 154 nM | 154 nM | 132 nM | 210 nM | 142 nM |
| UGCACGGGCUCGGCCGCCACUCCAGCGGGUCGAAAGGUCCGCUACUGAGUGAUGUUCGGUUGGAGGAGGACCGGGAGCCCGUGCA [#2 Exclusion - Tryptophan B Attempt #28 (HarryS)] | 98.9 nM | 97.9 nM | 122 nM | 115 nM | 140 nM |
| UGCAGUGAUGUUGCUAUUUGUCUUGAUAAACGAGGACCGGUACGGCCGCCACUCGAUUUCUCUCUUAUCGGGUAUGUUGUUUAGU [#21 K4 Tryptophan A Exclusion] | 156 nM | 186 nM | 172 nM | 205 nM | 113 nM |
| UGCAGUGAUGUUGCUAUUUGUCUUGAUUAACGAGGACCGGUACGGCCGCCACUCGAUUUCUCUCUAAUCGGGUAUGUUGUUUAGU [#20 K4 Tryptophan A Exclusion] | 154 nM | 200 nM | 170 nM | 187 nM | 119 nM |
| UGCAGUGAUGUUGCUAUUUUUCUUGAUUAACGAGGACCGGUACGGCCGCCACUCGAUUUCUCUCUAAUCCAGUAUGUUGUUUAAU [whbob_EX_Tryp_A_t4] | 114 nM | 137 nM | 114 nM | 143 nM | 86.1 nM |
| UGCAUGCUAGUAGUGAUGUUACAUGAUGAUACCAGUGCUUUUUUGCACCCUUGGCAGCGUCAUUUUGCAUGCACGUCGAAAGACG | 511 nM | 473 nM | 565 nM | 344 nM | 474 nM |
| UGCGUCGGUUCAGAUACCAGCCAAUUAGAGUCGAGUGAUGUUCGACAUUGAACGUCCAAAGGCCCUUGGCAGCUGGAUUGAGGAU [Same State Theophylline B GF 21] | 211 nM | 104 nM | 114 nM | 189 nM | 87.3 nM |
| UGCUCACAUAGAGGAUAUCUCAUAUGAGACAGUGAUGUUGUCUCAUAUAGACAUGUAAGUCUCAUGAGAGAAGGCUGUGUGAGCA [FMN B SS t8] | 140 nM | 106 nM | 117 nM | 99.3 nM | 113 nM |
| UGGACCUGACUCGAUACGAGUCAAUGAGAUACCAGCCACGAAAGUGGCCCUUGGCAGCUCUGCCAGUGAUGUUGGUCAAGGUCCU [#SwitchBubble 9 #StaticStem] | 1540 nM | 1140 nM | 1530 nM | 765 nM | 1360 nM |
| UGGACGUUAUACAAAUAGUAUAACUGGGAUACCAGUGACGAAAGUCACCCUUGGCAGCUCAACUGCCAGUGAUGUUGGUAGUCCA [Astros-Eli-mod#4] | 307 nM | 158 nM | 172 nM | 239 nM | 145 nM |
| UGGAGGAAUCGACCUCGAAAGAGGAUGGAUACCAGAGAAGAAAUUCUCCCUUGGCAGCCAGUGAUGUUGGAACCUCCUAAAUAAA [#SwitchBubble 18 #K4Late] | 609 nM | 445 nM | 706 nM | 354 nM | 622 nM |
| UGGAGUUGACGAAAAGUCAACUCCCGAGAAGGAGCGGACGAAAGUCCAGGUAGGUCGCUCGCUACCAGUGAUGUUGGUACUUUAA | 147 nM | 189 nM | 174 nM | 219 nM | 147 nM |
| UGGAGUUGACGAAAAGUCAACUCCUGAGAAGGAGCGGACGAAAGUCCAGGUAGGUCGCUCACUACCAGUGAUGUUGGUACUUUAA | 228 nM | 285 nM | 320 nM | 361 nM | 222 nM |
| UGGAGUUGACGAAAAGUCAACUCCUGAGAAGGAGCGGACGAAAGUCCAGGUAGGUCGCUCACUGCCAGUGAUGUUGGUAAAUAAA [#OpenEnded 1 - Direct theophylline transfer] | 89.5 nM | 175 nM | 113 nM | 144 nM | 82.8 nM |
| UGGAGUUGACGAAAAGUCAACUCCUGAGAUACCAGUGACGAAAGUCACCCUUGGCAGCUCACUGCCAGUGAUGUUGGUAUAUAAA [#OpenEnded 4] | 82.6 nM | 71.4 nM | 61 nM | 146 nM | 124 nM |
| UGGAGUUGACGAAAAGUCAACUCCUGAGAUACCAGUGACGAAGGUCACCCUUGGCAGCUCACUGCCAGUGAUGUUGGAAGAUAAA [whbob_SS_Theo_A_w47] | 273 nM | 292 nM | 303 nM | 396 nM | 174 nM |
| UGGAGUUGACGAAAAGUCAACUCCUGAGAUACCAGUGACGAAGGUCACCCUUGGCAGCUCACUGCUAGUGAUGUUGGUAGUUAAA [whbob_SS_Theo_A_w50] | 1050 nM | 502 nM | 797 nM | 773 nM | 829 nM |
| UGGCAGGUAUCGGCCGCCACUUUCUAGUACAUACGCAUAUCUUUACCAUCAGUGAUGUUGAUCAUAAGGACCGGGAUACAUCAGG [theeternabot_exclusion_KL_Trp_B_22] | 243 nM | 208 nM | 249 nM | 220 nM | 200 nM |
| UGGGAUGUUAAAGGAUAUAGAAAGUGAUAUUAGAAAGUGAGUGAUGUUGAUGUAGGUGAUGAUAUGUUAGAAGGUUAACAAAACG [abcde] | 411 nM | 219 nM | 334 nM | 303 nM | 292 nM |
